The labels stand for the following.
B1: Azoarcus group I ribozyme (parent)
chain: GUGCCUUGCGCCGGGAAACCACGCAAGGGAUGGUGUCAAAUUCGGCGAAACCUAAGCGCCCGCCCGGGCGUAUGGCAACGCCGAGCCAAGCUUCGGCGCCUGCGCCGAUGAAGGUGUAGAGACUAGACGGCACCCACCUAAGGCAAACGCUAUGGUGAAGGCAUAGUCCAGGGAGUGGCGAAAGUCACACAAACCGG

In the data set the parent is B1. In words: reverse-splicing fitness (ratio to wild type); higher = more active; in vitro selection; Mg2+ level not given. The method, boiled down: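 An in vitro group I ribozyme library with randomized positions was T7-transcribed and gel-purified. In triplicate, 10 pmol RNA in EPPS pH 7.5 was reacted with 50 pmoles of a 30-nt RNA substrate for 1 h at 37 °C across several added MgCl2 levels (1–48 mM), then stopped with EDTA. Products were reverse transcribed from a substrate-complementary primer, PCR-amplified and sequenced (HiSeq 4000). Fitness is a variant's read proportion after selection over that before, normalised to wild type.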
For C82G A111G A120C C169G U176C, the reverse-splicing fitness was determined as 0.0193.
A111U A120C A145C C150A C169G U176A: the reverse-splicing fitness came to 0.0194.
Next, C82G A145U C169U U176A: 0.0116.
C82A A120C A145C C150G C169A U176G: the reverse-splicing fitness came to 0.00632.
For C82A A111G A120C A145U C150U C169A U176A, the reverse-splicing fitness was determined as 0.0157.
As for C82U A111U A120U A145G C150G C169G, the reverse-splicing fitness turned out to be 0.00647.
For A120G A145G C169G U176A the value was 0.221; for C82U A111G A120U C169A, 0.00275; for A111C A120U A145U C150A U176C, 0.0354.
Take A145C C169G: the reverse-splicing fitness stood at 0.26.
For C82G A120U A145G C169U U176A the value was 0.00419; for C82U A111U A120G C150A C169G U176A, 0.0221; for A111C C169A U176C, 0.0285.
As for A111C A145C C150A C169U, the reverse-splicing fitness came out at 0.0128.
Take C82A A111C A120C A145U U176G: the reverse-splicing fitness is 0.00692.
Consider A120G A145U C169G U176C, for which the reverse-splicing fitness is 0.264.
Next, C82U A120G A145U C150G: 0.00697; C82A C150G C169A U176G: 0.00678.
As for A120C A145G C150G C169U U176G, the reverse-splicing fitness was 0.00611.
Regarding A111C A120U C150U C169U, the reverse-splicing fitness was 0.0424.
For the variant C82A A111C A120U C169G U176A, the reverse-splicing fitness was found to be 0.00421.
On to C82G A111G A120G C150A U176A, for which the reverse-splicing fitness worked out at 0.0148.
Regarding C82U A111C A120U A145U C150G C169G U176A, the reverse-splicing fitness amounted to 0.00332.
Regarding C82G A120U A145U C150U C169G U176C, the reverse-splicing fitness was 0.00331.
With C82U A111U A120U A145U C150A C169A U176A, the reverse-splicing fitness was found to be 0.00233.
C82A A111C A120G A145U C150A C169A: the reverse-splicing fitness amounted to 0.00893.
Take A111C A120C A145U C150G C169G U176G: the reverse-splicing fitness came to 0.00591.
Regarding C82U A111G A120C A145C C150G C169U U176G, the reverse-splicing fitness is 0.00424.
Consider C82U A111C A120C A145G C169G U176C, for which the reverse-splicing fitness amounted to 0.0254.
In the case of C82G A111G C150U C169U, the reverse-splicing fitness was found to be 0.0123.
Next, A111U A120C A145G C150A C169G U176A: 0.0161; C82A A111U A145G C150G C169U U176G: 0.00787; C82G A111G A145U C150U C169U U176A: 0.0134.
For the variant A111U A120C A145G C150U C169A U176A, the reverse-splicing fitness is 0.0143.
For A111U A145C C150U U176A, the reverse-splicing fitness is 0.399.
In the case of C82U A111U A145G C169G, the reverse-splicing fitness worked out at 0.00856.
On to A111U A120U A145G C169A U176G, for which the reverse-splicing fitness was 0.00247.
For A111C A120G A145C C150A U176C the value was 0.0118; for C82A A111G A120U A145G C150G, 0.00855; for A111U A120G A145G C150U C169U U176A, 0.0386.
As for C82G C150U C169G U176A, the reverse-splicing fitness turned out to be 0.0154.
On to A120G A145C C169A U176A, for which the reverse-splicing fitness stood at 0.0967.
Consider C82G A145U C150G C169A U176G, for which the reverse-splicing fitness turned out to be 0.00553.
For C82A A120G C169G the value was 0.0233; for A111U A120U A145G C150G C169G U176G, 0.00343.
As for C82U A111G A120C A145C C150A C169A U176A, the reverse-splicing fitness turned out to be 0.0104.
As for C82U A111G A120C A145U C150U C169G, the reverse-splicing fitness is 0.008.
Regarding C82A A145G C150A C169G, the reverse-splicing fitness came to 0.00939.
For the variant C82A A111C A145G C169G U176C, the reverse-splicing fitness was 0.0335.
Turning to C82A A111C A120U C150G C169A U176G, the reverse-splicing fitness worked out at 0.00319.
Turning to C82U A111C A120C A145C C169A U176C, the reverse-splicing fitness was 0.00743.
Next, C82A A111C A145C C150A C169G U176G: 0.00943; C82U A111G A120C C150U C169G U176C: 0.0156; C82G A111C A145C C150A U176C: 0.0188.
Regarding C82G A111G C150G C169G U176C, the reverse-splicing fitness turned out to be 0.00922.
With C82U C150U U176A, the reverse-splicing fitness stood at 0.238.
On to C82U A111U A120G A145C C150G C169A, for which the reverse-splicing fitness amounted to 0.00779.
On to A111C A120C A145U C169A U176G, for which the reverse-splicing fitness is 0.00762.
Regarding C82A A111U A145G C169A U176G, the reverse-splicing fitness was found to be 0.00574.
Take C82U A120G A145U C150A C169G U176G: the reverse-splicing fitness amounted to 0.0037.
For C82A A111G A145C C150A C169U U176A the value was 0.0133; for A111U A120G C150G C169G, 0.018; for C82U A111C A120G A145U C169U U176A, 0.0158.
For the variant C82A A120G A145U C150G C169G U176G, the reverse-splicing fitness was 0.00378.
A111U A120G A145G C169G U176A: the reverse-splicing fitness was found to be 0.0455.
For the variant C82A A111C A120G A145U, the reverse-splicing fitness came to 0.0152.
In the case of A120U A145C C169U U176A, the reverse-splicing fitness amounted to 0.0854.
Next, C82G A111C A120C A145U C150U U176G: 0.00688; C82A A111G A145U C150U C169A U176A: 0.0133.
For C82U A111G A120C A145G C150A C169G the value was 0.0105.
As to A111C A120G A145U C150G, the reverse-splicing fitness came out at 0.0193.
As for C82U A111C A120C A145G C150U C169U U176C, the reverse-splicing fitness came out at 0.0139.
With C82A A111U A120U A145C C169A U176A, the reverse-splicing fitness worked out at 0.00304.
Next, C82G A111C A120U A145U U176G: 0.00533.
Regarding C82U A111G A145G C150G C169A U176A, the reverse-splicing fitness came out at 0.012.
For C82A A111C A120C A145C C150G C169A the value was 0.00854; for A120C C150U C169A, 0.0269.
Regarding A111U C150A C169A U176C, the reverse-splicing fitness turned out to be 0.0168.
For the variant C82A A111G A120U A145U U176G, the reverse-splicing fitness amounted to 0.00433.
For C82G A111U A120G A145U C150G C169U U176A, the reverse-splicing fitness worked out at 0.0111.
Consider C82U A111G A120C A145C C150U C169U U176C, for which the reverse-splicing fitness is 0.00942.
For C82G A111G A120U C150U U176A the value was 0.0115; for A111G A120U A145G C150U C169G U176A, 0.0113.
